Laboratory results from the RNAGym collection of RNA variant scans (doi:10.7554/elife.80360).

B1: HDV Ribozyme (parent)
chain: GGCCGGCAUGGUCCCAGCCUCCUCGCUGGCGCCGGCUGGGCAACAUUCCGAGGGGACCGUCCCCUCGGUAAUGGCGAAUGGGACCCA

Variants of: B1
Assay: self-cleavage, relative activity (ratio to wild type); higher = more cleavage; co-transcriptional

Variant | self-cleavage
GGCCGGCAUGGUCCCAGCCUCCUCGCUGGCGCCGGCUGGGCCACAUUCCGAGGGGACCGUCCCCUCCGUAAUGGCGAAUGGGACCCA | 0.17
GGCCGGCAUGGUCCCAGCCUCCUCGCUGGCGCCGGCUGGGCAACAUUCCGAGCGGACCGUCCCCUCUGUAAUGGCGAAUGGGACCCA | 0.631
GGCCGGCAUGGUACCCGCCUCCUCGCUGGCGCCGGCUGGGCAACAUUCCGAGGGGACCGUCCCCUCGGUAAUGGCGAAUGGGACCCA | 0.748
GGCCGGCAUGGUCCCAGCCUCCUCGCGGGCGCCGGCUGGGCAACAUUCCGAGGGGACCGUCCCCUCGGUAAUGGCGAAUGGGACUCA | 0.807
GGCCGGCAUGGUCCCAGCCUCCUCGCUGGCGCCGGCUGGGCAACAUUCCGAGGGGACGGUCCCCUCGGUAAUAGCGAAUGGGACCCA | 0.406
GACCGGCAUGGUCCCAGCCUCCUCGCUGGCGACGGCUGGGCAACAUUCCGAGGGGACCGUCCCCUCGGUAAUGGCGAAUGGGACCCA | 0.0507
GGCCGGCAUGGUCCUAGCCUCCUCGCUGGCGCCGGCUGGGCAACAUUCCGAGGGGACCGUCCCCUCGGUAAUGUCGAAUGGGACCCA | 0.485
GGCCGGCAUGGUCCCGGCCUCCUCGCUGGCGCCGGCUGGGCAACAUUCCGAGGGGACCGUCCCGUCGGUAAUGGCGAAUGGGACCCA | 0.807
GGCGGGCAUGGUCCCAGCCUCCUCGCUGGCGCCGGCUUGGCAACAUUCCGAGGGGACCGUCCCCUCGGUAAUGGCGAAUGGGACCCA | 0.0287
GGCCGCCAUGGUCCCAGCCUCCUCGUUGGCGCCGGCUGGGCAACAUUCCGAGGGGACCGUCCCCUCGGUAAUGGCGAAUGGGACCCA | 0.646
GGCCGGCAUGGUCCCAGCCCCCUCGCUGGCGCCGGCUGGGCAACAUUCCGAAGGGACCGUCCCCUCGGUAAUGGCGAAUGGGACCCA | 0.175
GGCCGGCAUGGUCCCAGCCUCCUCGCUGGCGCCGGCUGGGCAACAUUCCGUGGGGACCGUCCCCUCGGUAAUGGCGAAUGGGACCCA | 0.981
GGCCGGCAUGGUCCCAGCCUCCUCGCUGGCGCGGGCUGGGCAACAUUCCGAGGGGACCGUCCGCUCGGUAAUGGCGAAUGGGACCCA | 0.369
GGCCGGCAUGGUCCCAGCCUUCUCGCUGGGGCCGGCUGGGCAACAUUCCGAGGGGACCGUCCCCUCGGUAAUGGCGAAUGGGACCCA | 0.107
GGCCGGCAUGGUCCCAGCCUCCUCGCGGGCGCCGGCUGGGCAACAUUCCGAGGGGACCGUCCCCUCGGUAAUGGCGAAUGGGACCCG | 0.774
GGCCGGCAUGGUCCCAGCCUCCUCGCUGGCGCCGGCUGUGCAACAUUCCAAGGGGACCGUCCCCUCGGUAAUGGCGAAUGGGACCCA | 0.681
GGCCGGCAUGGUCCCAGCCUGCUCGCUGGCGCCGGCUGGCCAACAUUCCGAGGGGACCGUCCCCUCGGUAAUGGCGAAUGGGACCCA | 0.0898
GGCCGGCAUGGUCCCAGCCUCCUCGCUGGCGCCGGCUGGGCAACAUUCCGAGGGGACCGUCCCCUCGGUAUUGGCGAAUGGGACCAA | 0.729
GGCCGGCAUGGUCCCAGCCUCCUCGCUGGCGCCGGCUGGGCAACAUUCCGAGGGUACCGUCCCCACGGUAAUGGCGAAUGGGACCCA | 0.891
GGCCGGCACGGUCCCAGCCUCCUCGCUGGCGCCGGCUGGCCAACAUUCCGAGGGGACCGUCCCCUCGGUAAUGGCGAAUGGGACCCA | 0.135
GGCCGGCAUGAUCCCAGCCUCCUCGCUGGCGCCGGCUGGGCAACAUUCCGAGGGGACCGUCCCCUCGGUAAUGGCGAAUGGGACACA | 0.735
GGCCGGCAUGGUCCCAGCCUCCUCGCUGGCGCCGGCUGGGCAACAUUCCGAGGGGACGGUCCCCUCGGUAAUGGCGAAUGGAACCCA | 0.277

Variant | self-cleavage
GGCCGGCAUGGUCCCAGCCUCCUCGCUGGCGCCGGCUGGGCAACAUGCCGAGCGGACCGUCCCCUCGGUAAUGGCGAAUGGGACCCA | 1.19
GCCCGGCAUGGUCCCAGCCUCCUCGCUGGCGCCGGCUGGGCAACAUUCCGAGGGGACCGUCCCAUCGGUAAUGGCGAAUGGGACCCA | 0.0652
GGCCGGCUUGGUCCCAGCCUCCUCGCUGGCGCCGGCUGGGCAACAUUCCGAGGGGACCGUCCCCUCGGUAAUGGCGAGUGGGACCCA | 0.388
GGCCGGCAUGGUCCCAGCCUCCUCGCUGGCGCCGGCUGGGCAAGAUUCCGAGGGGACCGUCCCCUCGGUAAUGGCGAAUGGGACCCC | 0.621
GGCCGGCAUGGUCCCAGCCUCCUCGCUGGCGCCGGCUGUGCAACAUUCCGAGGGGACCGUCCCCUCGGUAAUGGCGUAUGGGACCCA | 0.102
GGCCGGCAUGGUCCCAGCCUCCGCGCUGGCGCCGCCUGGGCAACAUUCCGAGGGGACCGUCCCCUCGGUAAUGGCGAAUGGGACCCA | 0.0639
GGCCGGCAUGGUCCCAGCCUCCUCGCUGGCGCCGGCUGGGCAACAUUCCGAGGGGAUCGUCCCCUCAGUAAUGGCGAAUGGGACCCA | 0.906
GGCCGGCAUGGUGCCAGCCUCCUCGCUGGCGCCGGCUGGGCAACAUUCCGAGGGGACCGUCCCCUCGGUAAUGUCGAAUGGGACCCA | 0.0386
GGCCAGCAUGGUCCCAGCCUCCUCGCUGGCGCCGGCUGGGCAACAUUCCGAGGGGACCGUCCCCUCGGUAACGGCGAAUGGGACCCA | 0.142
CGCCGGCAUGGUCCCAGCCUCCUCGCUGGCGCCGGCUGGGCAACAUUCCGAGGGGACCGUCCCCUCGGUAAUGGCGAACGGGACCCA | 0.177
GGACGGCAUGGUCCCAGCCUCCUCGCUGGCGCCGGCUGGGCAACAUUCCGAGGGGACCGUCCCCUCGGUAAUGGCGGAUGGGACCCA | 0.313
GGCCGGCAUGGUCCCAGCCUCCUCGCUGGCGCCGGCUGGGCAAAAUUCCGAAGGGACCGUCCCCUCGGUAAUGGCGAAUGGGACCCA | 0.776
GGCCGGCAUGGUCCCAGCCUCCUCGCUGGCGCCGGCUGGGCAAGGUUCCGAGGGGACCGUCCCCUCGGUAAUGGCGAAUGGGACCCA | 0.503
GGCCGGCAUGGUCCCAGCCUCCUCGCUGGCGCCGGCUGGGCAACAUUCCGAGGGGACCGUCCCCUGGGUAAGGGCGAAUGGGACCCA | 0.266
GGCCGGCAUGGUCCCAGCAUCCUCGCUGGCGCCGGCUGGGCAACAUUCCAAGGGGACCGUCCCCUCGGUAAUGGCGAAUGGGACCCA | 0.0231
GGCCGGCAUGGUCCCAGCCUCGUCGCUGGCGCCGGCUGGGCAACAUUCCGAGGGGUCCGUCCCCUCGGUAAUGGCGAAUGGGACCCA | 0.133
GGCCGGCAUGGUCCCAGCCUCCUCGCUGGCGCCGGCUGGGCAACAUUCCGAGGGGAACCUCCCCUCGGUAAUGGCGAAUGGGACCCA | 0.923
GGCCGGCAUGGUCCCAGCCUCCUCGUUGGCGCCCGCUGGGCAACAUUCCGAGGGGACCGUCCCCUCGGUAAUGGCGAAUGGGACCCA | 0.224
GGCCGGCAUGGUCCCAGCCUCCACGCUGGUGCCGGCUGGGCAACAUUCCGAGGGGACCGUCCCCUCGGUAAUGGCGAAUGGGACCCA | 0.554
GGCCGGCAUGGUCCCAGCCUCCUCGCUGGCGCCGGCUGGGCAACAUUCCGAUGGGACCGUCCCCUAGGUAAUGGCGAAUGGGACCCA | 0.618
GGCCGGCAUGGUCCCAGCCUCCUCGCUGGCGCCGGAUGGGCAACAUUCCGAGGGGACCGUCCCCUCGGUAAUGACGAAUGGGACCCA | 0
GGCCGGCAUGGUCCCAGCCUCCUCGCGGGCGCCGGCUGGGCAACUUUCCGAGGGGACCGUCCCCUCGGUAAUGGCGAAUGGGACCCA | 0.831

Variant | self-cleavage
GGCCGGCAUGGUCCCAGCCUCCUCGCUGGAGCCGGGUGGGCAACAUUCCGAGGGGACCGUCCCCUCGGUAAUGGCGAAUGGGACCCA | 0.148
GGCCUGCAUGGUCCGAGCCUCCUCGCUGGCGCCGGCUGGGCAACAUUCCGAGGGGACCGUCCCCUCGGUAAUGGCGAAUGGGACCCA | 0
GGCCGGCAUGGUCCCAGCCUCCUCGCUGGCGCCGGCUGGGCAACAAUCCGAGGGGAACGUCCCCUCGGUAAUGGCGAAUGGGACCCA | 0.851
GGCCGGCAUGGGCCCAGCCUCCUCGCUGGCGCCGGCUGGGCAACAUUCCGAGAGGACCGUCCCCUCGGUAAUGGCGAAUGGGACCCA | 0.88
UGCCGGCAUGGUCCCAGCCUCCUCGCUGGCGCCGGCUGGGCAACAUUACGAGGGGACCGUCCCCUCGGUAAUGGCGAAUGGGACCCA | 0.465
GGCCGGCAUGGUCCCAGCCUCCUCGCUGGCGCCGGCUGGCCAACAUUCCCAGGGGACCGUCCCCUCGGUAAUGGCGAAUGGGACCCA | 0.225
GGCCGGCAUGGUCCCAGCCUCCUCGCUGGCGCCGGCUGGGCAACAUUCCGAGGGGACCGUCCCCUCGGUAUUGGCGAUUGGGACCCA | 0.185
GGACGGCAUGGUCCCAGCCUCCUCGCUGGCGCCGGCUGGGCAACAUUCCGAGGGGACGGUCCCCUCGGUAAUGGCGAAUGGGACCCA | 0.606
GGCCGGCAUGGUCGGAGCCUCCUCGCUGGCGCCGGCUGGGCAACAUUCCGAGGGGACCGUCCCCUCGGUAAUGGCGAAUGGGACCCA | 0
GGCCGGCAUGGUCCCAGCCUCCUCGCUGGCGCCGGCUGGGCAACAUUCCGAGGGGACCGUCACCUCGGUUAUGGCGAAUGGGACCCA | 0.955
GGCCGGCAUGGUCCCAGUCUCCUCGCUGGCGCCGGCUGGGCAACAUUCUGAGGGGACCGUCCCCUCGGUAAUGGCGAAUGGGACCCA | 0.587
GGCCGGCAUGGUCCCAGCCUCCUCGCUGGCGCCGCAUGGGCAACAUUCCGAGGGGACCGUCCCCUCGGUAAUGGCGAAUGGGACCCA | 0.119
GGCCGGCAUGGUCCCAGCCUCCUCGCUGGCGUCGGCUGGGCAACAUUCCGAGGGGACCGUCCCUUCGGUAAUGGCGAAUGGGACCCA | 0.831
GGCCGGCAUGGUCCCAGCCUCCUCGCUGGCGCCGGCUGGGCAACAUUCCGAGGGGACCGGCCCCUCGGUGAUGGCGAAUGGGACCCA | 0.911
GGCCGGCAUGGUACCAGCCUCCUCGCUGGCGGCGGCUGGGCAACAUUCCGAGGGGACCGUCCCCUCGGUAAUGGCGAAUGGGACCCA | 0.0346
GGCCGGCAGGGUCCCAGCCUCCUCGCUGGCGCCGGCUGGGCAACAUUCAGAGGGGACCGUCCCCUCGGUAAUGGCGAAUGGGACCCA | 1.11
GGCCCGCAUGGUCCCAGCCUCCUCGCUGGCGCCGGCUGGGCAACAUUCCGAGGGGACCCUCCCCUCGGUAAUGGCGAAUGGGACCCA | 0.0791
GUCCGGCAUGGUCCUAGCCUCCUCGCUGGCGCCGGCUGGGCAACAUUCCGAGGGGACCGUCCCCUCGGUAAUGGCGAAUGGGACCCA | 0
GGCCGGCAGGGUCCCAGCCACCUCGCUGGCGCCGGCUGGGCAACAUUCCGAGGGGACCGUCCCCUCGGUAAUGGCGAAUGGGACCCA | 0
GGCCGGCAUGGUCCCAGCCUCCUCGCUGGCGCCGGCUGGGCAACAUUCUGAGGGGACCGUCCCCUCGAUAAUGGCGAAUGGGACCCA | 0.987
